System: OC[C@H]1O[C@@H](Oc2c[nH]c3ccc(Br)c(Cl)c23)[C@H](O)[C@@H](O)[C@H]1O
Experiment: purified protein, by the assay type
Settings: other: β-D-galactosidase substrate; stated when explaining why the standard curve levels off at high enzyme amounts

“biotinylated β-D-galactosidase (Escherichia coli K-12)” was tested, and the Km was 3000 µM.
